Measured values as given in article PMC7308506 (2020).

How the values were obtained:
[1] = biological target: kallikrein; test: SPR
[2] = biological target: T1, activated factor XII; test: SPR
T1 chain 1: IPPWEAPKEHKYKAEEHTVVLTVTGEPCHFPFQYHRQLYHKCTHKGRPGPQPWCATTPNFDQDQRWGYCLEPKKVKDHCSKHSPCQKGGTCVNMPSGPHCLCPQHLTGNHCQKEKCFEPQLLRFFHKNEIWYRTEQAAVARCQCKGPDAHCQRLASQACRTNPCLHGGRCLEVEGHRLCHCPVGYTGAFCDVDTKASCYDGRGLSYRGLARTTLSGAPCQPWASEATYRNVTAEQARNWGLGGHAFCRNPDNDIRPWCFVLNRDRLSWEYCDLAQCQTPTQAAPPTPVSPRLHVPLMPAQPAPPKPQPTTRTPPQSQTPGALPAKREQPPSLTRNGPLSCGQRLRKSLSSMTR
T1 chain 2: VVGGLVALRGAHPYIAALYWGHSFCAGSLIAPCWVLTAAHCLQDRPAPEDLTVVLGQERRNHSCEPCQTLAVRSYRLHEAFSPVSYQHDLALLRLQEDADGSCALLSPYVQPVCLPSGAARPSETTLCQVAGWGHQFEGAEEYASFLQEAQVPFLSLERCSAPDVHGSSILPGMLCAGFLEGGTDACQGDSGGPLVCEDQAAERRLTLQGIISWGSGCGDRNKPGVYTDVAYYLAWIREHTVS

B1: LCTX-F2 (peptide)
chain: GAKACTPRLHDCSHDRHSCCRGELFKDVCYCFYPEGEDKTEVCSCQQPKSHKYIEKVVDKTKTLVG
- Kd [1]: 4.6 nM
- Kd [2]: 7.2 nM
